Reference: patent publication US20160185837A1 (Medimmune Limited, priority 2013, published 2016)
Positions count from the first letter of the chain named.

T1: mouse GIP receptor (mGIPr) (Mus musculus, UniProt Q0P543)
T1 construct: expressed in transfected cells; host or cells: HEK293s or CHO cells
T1 sequence (Q0P543 19-460): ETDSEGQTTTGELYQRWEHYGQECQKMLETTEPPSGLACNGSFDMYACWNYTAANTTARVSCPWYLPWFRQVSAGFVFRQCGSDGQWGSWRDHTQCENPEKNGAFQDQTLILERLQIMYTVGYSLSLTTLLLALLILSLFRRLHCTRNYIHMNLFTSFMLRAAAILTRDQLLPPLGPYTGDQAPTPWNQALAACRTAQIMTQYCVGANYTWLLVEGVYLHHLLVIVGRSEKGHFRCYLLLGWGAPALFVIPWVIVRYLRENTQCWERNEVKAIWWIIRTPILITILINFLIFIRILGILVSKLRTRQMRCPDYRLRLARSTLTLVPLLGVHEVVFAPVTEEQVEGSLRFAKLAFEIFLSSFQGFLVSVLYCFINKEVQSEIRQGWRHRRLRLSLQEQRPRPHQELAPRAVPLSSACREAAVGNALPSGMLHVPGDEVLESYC

T2: rat GLP-1 receptor (rGLP-1r) (Rattus norvegicus, UniProt P32301)
T2 construct: expressed in transfected cells; host or cells: HEK293s or CHO cells
T2 sequence (P32301 22-463): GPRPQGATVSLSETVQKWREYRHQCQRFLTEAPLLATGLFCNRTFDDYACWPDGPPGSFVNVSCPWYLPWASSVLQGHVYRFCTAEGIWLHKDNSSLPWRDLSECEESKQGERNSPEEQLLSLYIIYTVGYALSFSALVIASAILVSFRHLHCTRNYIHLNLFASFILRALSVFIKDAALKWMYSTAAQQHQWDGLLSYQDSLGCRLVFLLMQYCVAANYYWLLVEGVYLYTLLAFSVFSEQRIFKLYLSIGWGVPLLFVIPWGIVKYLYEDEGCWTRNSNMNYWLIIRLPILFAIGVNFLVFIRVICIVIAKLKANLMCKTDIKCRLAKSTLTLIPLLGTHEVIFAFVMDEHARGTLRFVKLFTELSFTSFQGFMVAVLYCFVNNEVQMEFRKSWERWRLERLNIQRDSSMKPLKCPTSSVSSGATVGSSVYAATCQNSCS

T3: mouse GLP-1 receptor (mGLP-1r) (Mus musculus, UniProt O35659)
T3 construct: expressed in transfected cells; host or cells: HEK293s or CHO cells
T3 sequence (O35659 22-463): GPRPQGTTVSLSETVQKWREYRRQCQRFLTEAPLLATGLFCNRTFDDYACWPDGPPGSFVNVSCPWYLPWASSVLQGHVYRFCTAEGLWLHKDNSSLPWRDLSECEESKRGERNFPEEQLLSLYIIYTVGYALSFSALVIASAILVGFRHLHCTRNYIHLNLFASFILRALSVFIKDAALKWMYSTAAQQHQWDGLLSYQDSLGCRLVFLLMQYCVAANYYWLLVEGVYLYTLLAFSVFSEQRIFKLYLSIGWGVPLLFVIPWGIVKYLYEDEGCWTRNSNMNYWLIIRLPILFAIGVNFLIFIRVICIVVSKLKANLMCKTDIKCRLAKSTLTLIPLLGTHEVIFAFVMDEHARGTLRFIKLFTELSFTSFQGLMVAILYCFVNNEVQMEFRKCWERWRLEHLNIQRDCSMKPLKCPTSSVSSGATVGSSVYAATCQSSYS

T4: rat GIP receptor (rGIPr) (Rattus norvegicus, UniProt P43219)
T4 construct: expressed in transfected cells; host or cells: HEK293s or CHO cells
T4 sequence (P43219 19-455): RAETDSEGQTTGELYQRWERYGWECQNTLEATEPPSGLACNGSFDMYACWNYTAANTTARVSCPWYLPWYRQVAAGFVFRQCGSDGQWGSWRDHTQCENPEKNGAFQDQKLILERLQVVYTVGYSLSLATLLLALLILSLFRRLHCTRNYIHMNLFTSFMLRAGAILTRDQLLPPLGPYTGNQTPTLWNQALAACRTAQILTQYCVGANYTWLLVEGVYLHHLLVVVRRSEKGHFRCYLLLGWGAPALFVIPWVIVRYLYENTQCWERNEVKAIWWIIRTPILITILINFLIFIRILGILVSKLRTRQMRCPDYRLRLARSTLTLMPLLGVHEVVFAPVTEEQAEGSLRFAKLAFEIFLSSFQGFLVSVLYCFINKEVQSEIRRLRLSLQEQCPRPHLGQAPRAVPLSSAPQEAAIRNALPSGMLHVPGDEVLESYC

T5: human GIP receptor (hGIPr) (Homo sapiens, UniProt P48546)
T5 construct: expressed in transfected cells
T5 sequence (P48546 22-466): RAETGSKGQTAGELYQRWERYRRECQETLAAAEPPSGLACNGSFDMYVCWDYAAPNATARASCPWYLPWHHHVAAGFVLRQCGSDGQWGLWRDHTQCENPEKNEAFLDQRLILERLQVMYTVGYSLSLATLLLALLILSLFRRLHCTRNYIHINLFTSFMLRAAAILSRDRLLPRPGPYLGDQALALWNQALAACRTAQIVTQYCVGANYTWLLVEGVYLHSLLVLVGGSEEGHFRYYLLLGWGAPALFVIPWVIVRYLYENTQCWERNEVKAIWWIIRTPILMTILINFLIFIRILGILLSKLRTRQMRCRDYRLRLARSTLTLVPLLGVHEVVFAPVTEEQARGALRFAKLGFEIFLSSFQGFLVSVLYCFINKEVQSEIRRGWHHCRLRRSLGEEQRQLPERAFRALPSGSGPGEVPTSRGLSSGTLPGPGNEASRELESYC

B1: IP301 (protein)
chain: YSEGTFTSDVSSYLEREAIDEFIAWLLKGGAAAGGSGSTASSGSGSATGGGGAATHTCPPC
B2: IP307 (protein)
chain: B1 chain with L14M, E17Q, G29Q
B3: IP315 (protein)
chain: B1 chain with T7I, V10Y, E17Q
B4: IP306 (protein)
chain: B1 chain with V10Y, S12K, Y13L, E17Q
B5: IP310 (protein)
chain: B1 chain with L14M, E17Q, G30K
B6: IP309 (protein)
chain: B1 chain with T7I, E17Q
B7: IP366 (protein)
chain: B1 chain with V10Y, S11R, S12M, Y13L, L14K, E17Q
B8: IP375 (protein)
chain: B1 chain with F6H, D9L, V10F, S12K, Y13L, E17Q
B9: IP394 (protein)
chain: B1 chain with T5M, F6H, V10L, S12K, Y13L, E17Q
B10: IP365 (protein)
chain: B1 chain with T5M, F6H, V10F, S12K, Y13L, E17Q
B11: IP378 (protein)
chain: B1 chain with D9L, V10Y, S11R, S12I, Y13L, E17Q
B12: IP364 (protein)
chain: B1 chain with V10F, S12K, Y13L, E17Q
B13: IP312 (protein)
chain: B1 chain with T7I, L14M, E17Q
B14: IP373 (protein)
chain: B1 chain with F6H, V10F, S12K, Y13L, E17Q

Molecular target: T1, mouse GIP receptor (mGIPr)
Test: BSA-cAMP assay, cells expressing mouse GIP receptor
Format: cell-based
Settings: Batch 1; BSA-cAMP assay; read-out: mGIPr cAMP activity EC50
Experimental: (§1) One basic cAMP assays was performed, differing in the medium used for the assay, the “BSA-cAMP assay”:
(§2) BSA-based assay medium: 0.1% bovine serum albumin (BSA) in
(§3) In certain aspects, the assay can also be carried out in medium supplemented with serum albumin that corresponds to the receptor being tested, e.g., human serum albumin for testing cAMP activity at hGIPr or hGLP-1r, rat serum albumin for testing cAMP activity at rGIPr or rGLP-1r, and so on. […] All sample dilutions were made in duplicate.
(§4) A frozen cryo-vial of cells expressing the receptor of interest was thawed rapidly in a water-bath, transferred to pre-warmed assay media and spun at 240×g for 5 minutes. Cells were re-suspended in assay buffer at an optimized concentration (e.g., hGLP-1r and hGIPr cells at 0.5×10^5 cells/ml).
(§5) To this, 5 μL cell suspension was added and the plates incubated at room temperature for 30 minutes.
(§6) cAMP levels were measured using a commercially available cAMP dynamic 2 HTRF kit (Cisbio, Cat #62AM4PEJ), following the two step protocol as per manufacturer's recommendations. In brief; anti-cAMP cryptate (donor fluorophore) and cAMP-d2 (acceptor fluorophore) were made up separately by diluting each 1/20 in conjugate & lysis buffer provided in the kit. 5 μL anti-cAMP cryptate was added to all wells of the assay plate, and 5 μL cAMP-d2 added to all wells except non-specific binding (NSB) wells, to which conjugate and lysis buffer was added. […] Data was transformed to % Delta F as described in manufacturer's guidelines and then transformed to percent activation of maximal native agonist response and analysed by 4-parameter logistic fit to determine EC50 values.
(§7) We used unconstrained 4 parameter logistic fit of data, curve mid-point to determine EC50. This was tested on two occasions, not two batches.
(§8) In order to be able to carry out in vivo studies in rodents, IP088 was tested for potency against the mouse receptors mGIPr and mGLP-1r as well as the rat receptors rGIPr and rGLP-1r, using cells expressing the respective receptors in the cAMP assay described above.

EC50	Molecule
22 nM	B1
31 nM	B2
0.36 nM	B3
0.25 nM	B4
31 nM	B5
15 nM	B6
0.056 nM	B7
0.65 nM	B8
10 nM	B9
17 nM	B10
3.1 nM	B11
0.5 nM	B12
16 nM	B13
3.2 nM	B14

Molecular target: T6, human GLP-1 receptor (hGLP-1r) (Homo sapiens, UniProt P43220)
T6 construct: expressed in transfected cells
T6 sequence (P43220 24-463): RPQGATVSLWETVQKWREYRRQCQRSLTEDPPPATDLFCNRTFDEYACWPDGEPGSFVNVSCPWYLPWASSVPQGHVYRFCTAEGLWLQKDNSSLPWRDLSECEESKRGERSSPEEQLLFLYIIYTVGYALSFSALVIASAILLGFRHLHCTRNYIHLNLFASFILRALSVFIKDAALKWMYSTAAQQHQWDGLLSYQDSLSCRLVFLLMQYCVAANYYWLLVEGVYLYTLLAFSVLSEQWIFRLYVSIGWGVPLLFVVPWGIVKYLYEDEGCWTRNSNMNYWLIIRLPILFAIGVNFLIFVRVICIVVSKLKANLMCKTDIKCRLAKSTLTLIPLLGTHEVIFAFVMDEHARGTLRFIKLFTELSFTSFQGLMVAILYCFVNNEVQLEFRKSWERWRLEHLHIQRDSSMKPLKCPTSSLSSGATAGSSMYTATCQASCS
Test: BSA-cAMP assay, cells expressing human GLP-1 receptor
Format: cell-based
Settings: Batch 1; BSA-cAMP assay; read-out: hGLP1r cAMP activity EC50
Experimental: as §1, §2, §3, §4, §5, §6, §7

EC50	Molecule
0.31 nM	B1
1.6 nM	B2
> 5460 nM	B3
0.1 nM	B4
0.35 nM	B5
7.7 nM	B6
6.1 nM	B7
4 nM	B8
0.87 nM	B10
17 nM	B11
0.18 nM	B12
> 5310 nM	B13
0.72 nM	B14

Molecular target: T2, rat GLP-1 receptor (rGLP-1r)
Test: BSA-cAMP assay, cells expressing rat GLP-1 receptor
Format: cell-based
Settings: Batch 1; BSA-cAMP assay; read-out: rGLP1r cAMP activity EC50
Experimental: as §1, §2, §3, §4, §5, §6, §7, §8

EC50	Molecule
0.058 nM	B1
0.21 nM	B2
13 nM	B3
0.015 nM	B4
0.038 nM	B5
1.7 nM	B6
14 nM	B7
3.9 nM	B8
0.23 nM	B9
1.5 nM	B10
0.058 nM	B12
5.4 nM	B13
0.9 nM	B14

Molecular target: T3, mouse GLP-1 receptor (mGLP-1r)
Test: BSA-cAMP assay, cells expressing mouse GLP-1 receptor
Format: cell-based
Settings: Batch 1; BSA-cAMP assay; read-out: mGLP1r cAMP activity EC50
Experimental: as §1, §2, §3, §4, §5, §6, §7, §8

EC50	Molecule
1.9 nM	B1
6.5 nM	B2
> 5460 nM	B3
0.25 nM	B4
1.4 nM	B5
16 nM	B6
100 nM	B7
49 nM	B8
10 nM	B9
11 nM	B10
100 nM	B11
0.69 nM	B12
> 1060 nM	B13
9.2 nM	B14

Molecular target: T7, human glucagon receptor (GCGr) (Homo sapiens, UniProt P47871)
T7 construct: expressed in transfected cells; host or cells: HEK293s or CHO cells
T7 sequence (P47871 26-477): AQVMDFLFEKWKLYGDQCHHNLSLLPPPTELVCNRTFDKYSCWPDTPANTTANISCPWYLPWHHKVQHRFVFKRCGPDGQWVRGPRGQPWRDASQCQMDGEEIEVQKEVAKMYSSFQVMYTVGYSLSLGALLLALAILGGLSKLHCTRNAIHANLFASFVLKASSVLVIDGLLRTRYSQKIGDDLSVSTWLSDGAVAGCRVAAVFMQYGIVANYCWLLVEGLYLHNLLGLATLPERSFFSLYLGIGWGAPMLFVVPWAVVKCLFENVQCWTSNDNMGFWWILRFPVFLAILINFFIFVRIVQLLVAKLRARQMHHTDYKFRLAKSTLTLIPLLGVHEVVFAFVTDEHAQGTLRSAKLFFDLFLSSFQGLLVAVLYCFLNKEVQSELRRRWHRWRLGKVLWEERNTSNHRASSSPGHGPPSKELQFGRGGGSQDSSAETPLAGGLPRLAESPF
Test: BSA-cAMP assay, cells expressing human glucagon receptor
Format: cell-based
Settings: Batch 1, read-out: hGCGr cAMP activity EC50
Experimental: as §1, §2, §3, §4, §5, §6, §7

EC50	Molecule
12000 nM	B1
4100 nM	B2
280 nM	B3
220 nM	B4
3700 nM	B5
900 nM	B6
> 10200 nM	B7
> 11700 nM	B8
> 17600 nM	B9
> 10700 nM	B10
> 2250 nM	B11
610 nM	B12
> 5310 nM	B13
> 6790 nM	B14

Molecular target: T4, rat GIP receptor (rGIPr)
Test: BSA-cAMP assay, cells expressing rat GIP receptor
Format: cell-based
Settings: Batch 1; BSA-cAMP assay; read-out: rGIPr cAMP activity EC50
Experimental: as §1, §2, §3, §4, §5, §6, §7, §8

EC50	Molecule
4.7 nM	B1
5.2 nM	B2
0.096 nM	B3
0.026 nM	B4
5.2 nM	B5
1.3 nM	B6
0.016 nM	B7
0.07 nM	B8
0.06 nM	B9
0.12 nM	B10
0.4 nM	B11
0.02 nM	B12
1.2 nM	B13
0.035 nM	B14

Molecular target: T5, human GIP receptor (hGIPr)
Test: BSA-cAMP assay, cells expressing human GIP receptor
Format: cell-based
Settings: Batch 1; BSA-cAMP assay; read-out: hGIPr cAMP activity EC50
Experimental: For human GIPr, two different lines were used, shown as “hGIPr” and “hGIPr (C3)” in Table 11.
as §1, §2, §3, §4, §5, §6, §7

EC50	Molecule
0.12 nM	B1
0.091 nM	B2
0.024 nM	B3
0.011 nM	B4
0.15 nM	B5
0.086 nM	B6
0.14 nM	B7
0.078 nM	B8
0.0095 nM	B9
0.02 nM	B10
0.0085 nM	B12
0.048 nM	B13
0.0054 nM	B14
